Paper PMC6261992, “Structural insight into D-xylose utilization by xylose reductase from Scheffersomyces stipitis” (Scientific Reports, 2018)

Legend:
purified protein [1] = substrate: NC(=O)C1=CN([C@@H]2O[C@H](COP(=O)(O)OP(=O)(O)OC[C@H]3O[C@@H](n4cnc5c(N)ncnc54)[C@H](O)[C@@H]3O)[C@@H](O)[C@H]2O)C=CC1; test: purified protein; assay type: biochemical, Scheffersomyces stipitis; details: 150 mM NaCl, 100 mM D-xylose, 100 mM Tris-HCl pH 8.0, 303 K, 30.0 °C, varied: cofactor
purified protein [2] = substrate: NC(=O)C1=CN([C@@H]2O[C@H](COP(=O)(O)OP(=O)(O)OC[C@H]3O[C@@H](n4cnc5c(N)ncnc54)[C@H](OP(=O)(O)O)[C@@H]3O)[C@@H](O)[C@H]2O)C=CC1; test: purified protein; assay type: biochemical, Scheffersomyces stipitis; details: 150 mM NaCl, 100 mM D-xylose, 100 mM Tris-HCl pH 8.0, 303 K, crystal structure of the complex at 2.0 Å, 30.0 °C, varied: cofactor
[3] = target: the molecule itself; test: SEC; analytical, Superdex increase 200 10/300 GL, 40 mM Tris-HCl pH 8.0, 0 mM NaCl; 0.5 mL at 1 mg/mL; (in 50 and 100 mM NaCl generally separated into monomers)

B1: D-xylose reductase from Scheffersomyces stipitis (enzyme, UniProt P31867 1-318, looked up)
chain: MPSIKLNSGYDMPAVGFGCWKVDVDTCSEQIYRAIKTGYRLFDGAEDYANEKLVGAGVKKAIDEGIVKREDLFLTSKLWNNYHHPDNVEKALNRTLSDLQVDYVDLFLIHFPVTFKFVPLEEKYPPGFYCGKGDNFDYEDVPILETWKALEKLVKAGKIRSIGVSNFPGALLLDLLRGATIKPSVLQVEHHPYLQQPRLIEFAQSRGIAVTAYSSFGPQSFVELNQGRALNTSPLFENETIKAIAAKHGKSPAQVLLRWSSQRGIAIIPKSNTVPRLLENKDVNSFDLDEQDFADIAKLDINLRFNDPWDWDKIPIFV
notes: D-xylose reductase (SsXR) of Scheffersomyces stipitis; cloned NdeI/XhoI into pProEX-HTa; The vector adds a 6x-His tag with an rTEV protease cleavage site at the N-terminus; also called SsXR; XR; source: E. coli BL21(DE3)-T1R, purified (Ni-NTA, gel filtration)
Purified protein [1]
  Km: 0.136 ± 0.017 mM
  kcat: 2.39 ± 0.15 s⁻¹
Purified protein [2]
  Km: 0.0277 ± 0.0020 mM
  kcat: 7.63 ± 0.19 s⁻¹
[3]
  stoichiometry N: 2
